Reference: article PMC13090976 (Cell Stress & Chaperones, 2026)
Changes are numbered by the printed parent chain. Names and notes keep the numbering of the source. One block for each molecule: values may come before it. Square brackets hold non-standard residues; d marks the D form. Ends that are not written are not given here. Peptide text beside a SMILES is read from it. * marks the point of attachment. FITC = O=C1OC2(c3ccc(O)cc3Oc3cc(O)ccc32)c2ccc(NC(=S)*)cc21; Biotin = O=C1N[C@H]2[C@H](CS[C@H]2CCCCC(=O)*)N1; pT = C[C@@H](OP(=O)(O)O)[C@H](N)C(=O)O; Ahx = NCCCCCC(=O)O

T1: full-length CHIP-G132N (Homo sapiens, UniProt Q9UNE7, G132N)
T1 construct: HIS; made in house
T1 sequence (Q9UNE7 1-303 G132N): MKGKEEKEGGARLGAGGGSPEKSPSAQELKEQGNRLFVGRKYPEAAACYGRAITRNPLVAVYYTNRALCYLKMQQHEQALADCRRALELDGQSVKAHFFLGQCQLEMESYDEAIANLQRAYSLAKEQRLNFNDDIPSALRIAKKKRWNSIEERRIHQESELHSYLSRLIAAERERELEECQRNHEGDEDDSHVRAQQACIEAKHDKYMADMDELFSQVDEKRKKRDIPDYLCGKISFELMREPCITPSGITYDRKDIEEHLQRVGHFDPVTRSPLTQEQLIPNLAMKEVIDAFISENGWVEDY

T2: full-length wild-type CHIP (Homo sapiens, UniProt Q9UNE7)
T2 construct: Recombinant CHIP-TPR (residues 21-154) and full-length CHIP proteins were expressed and purified as described; HIS; made in house
T2 sequence (Q9UNE7 1-303): T1 sequence (Q9UNE7 1-303 G132N) with N132G

T3: G132N CHIP-TPR (human, UniProt Q9UNE7 21-154, G132N)
T3 construct: CHIP (STUB1), human, TPR domain with G132N; also called G132N variant
T3 sequence (looked up): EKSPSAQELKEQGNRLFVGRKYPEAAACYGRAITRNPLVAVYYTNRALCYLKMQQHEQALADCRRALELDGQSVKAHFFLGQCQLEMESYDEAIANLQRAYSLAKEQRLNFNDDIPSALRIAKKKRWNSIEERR

T4: human CHIP-TPR (residues 21-154) (human, UniProt Q9UNE7 21-154)
T4 construct: also called wild-type CHIP-TPR
T4 sequence (looked up): T3 sequence (looked up) with N112G

T5: CHIP TPR (fluorescence polarization construct) (human)
T5 chain: T3 sequence (looked up) with N112G

T6: full-length CHIP (wild-type) (human, UniProt Q9UNE7 1-303)
T6 construct: CHIP (STUB1), full length, wild-type; Vector CHIP of the JCS lab; also called CHIP-WT; STUB1
T6 sequence (looked up): T1 sequence (Q9UNE7 1-303 G132N) with N132G

B1: biotin-GSGSGP(pT)IEEVD (peptide)
peptide: Biotin-GSGSGP[pT]IEEVD
notes: C-terminal tail of human HSP70 (HSPA1A), Thr636 phosphorylated; also called biotin-pEEVD; biotinylated pEEVD peptide; source: synthetic peptide (Lifetein/Genscript)
B2: biotin-GSGSGPTIEEVD (peptide)
peptide: Biotin-GSGSGPTIEEVD
notes: C-terminal tail of human HSP70 (HSPA1A); also called biotin-EEVD; biotinylated EEVD peptide; source: synthetic peptide (Lifetein/Genscript)
B3: G132N: structure-guided G132N substitution variant of CHIP (protein)
chain: T1 sequence (Q9UNE7 1-303 G132N)
modifications: left off: HIS, end not stated, state not stated
notes: structure-guided G132N substitution variant of CHIP
B4: CHIP TPR (fluorescence polarization construct) (domain or fragment)
chain: T3 sequence (looked up) with N112G
B5: CHIP TPR-CC (domain or fragment)
chain: MKGKEEKEGGARLGAGGGSPEKSPSAQELKEQGNRLFVGRKYPEAAACYGRAITRNPLVAVYYTNRALCYLKMQQHEQALADCRRALELDGQSVKAHFFLGQCQLEMESYDEAIANLQRAYSLAKEQRLNFGDDIPSALRIAKKKRWNSIEERRIHQESELHSYLSRLIAAERERELEECQRNHEGDEDDSHVRAQQACIEAKHDKYMADMDELFSQVDEKRKKR
B6: FITC-Ahx-GSGPTIEEVD (peptide)
peptide: {FITC-Ahx}-GSGPTIEEVD
notes: C-terminal tail of human HSP70 (HSPA1A); also called EEVD (fluorescence polarization tracer); unphosphorylated EEVD peptide; source: synthetic peptide (Lifetein/Genscript)

Tests used:
full-length CHIP-G132N = molecular target: T1, full-length CHIP-G132N; assay: Fluorescence polarization, full-length CHIP-G132N; conditions: Fig. 4d binding curve, value in picture; FITC-Ahx-labelled peptide 20 nM, room temperature, 30 min; n = 3 independent experiments
Text: (§1) Plasmids were propagated in DH5α Escherichia coli and purified using Qiagen Miniprep or Bio-Rad Midiprep kits. Mutations were introduced with Q5 (NEB) or QuikChange II XL (Agilent) kits and verified by Sanger sequencing. Peptides (Lifetein/Genscript) included unphosphorylated […] (EEVD), phosphorylated GP(pT)IEEVD (pEEVD), biotin-[…] (biotin-EEVD), biotin-GSGSGP(pT)IEEVD (biotin-pEEVD), and FITC-Ahx-[…] or FITC-Ahx-GSGP(pT)IEEVD for polarization assays. Recombinant CHIP-TPR (residues 21-154) and full-length CHIP proteins were expressed and purified as described.[8], [29]
(§2) The N-terminally labeled peptides were loaded into PCR reaction tubes at 2X (40 nM), resulting in a final concentration of 20 nM. Recombinant CHIP constructs were added to the tubes at the indicated concentrations. The reaction was left at room temperature for 30 min before loading into black, low-volume, round-bottom 384-well plates (Greiner Bio-One) with inter-run triplicates at 18 μl each and subsequently repeated independently 2 more times. […] The polarization readings were normalized to the dilution buffer. Gain adjustment was made to the tracer HSP70 peptides alone.

[1] = molecular target: T2, full-length wild-type CHIP; assay: Fluorescence polarization, full-length wild-type CHIP with HSP70 C-terminal peptide; conditions: Fig. 4c binding curve, value in picture; FITC-Ahx-labelled peptide 20 nM, room temperature, 30 min; n = 3 independent experiments
Text: as §1, §2

CHIP = CHIP (UniProt Q9UNE7); assay: fluorescence polarization titration; conditions: reference: unphosphorylated EEVD peptide; sites T636
proteasome = assay: Proteasome-dependent turnover of HSP70 T636 variants; type: cell-based; conditions: relative to WT and T636A, Figure S3
G132N CHIP-TPR = molecular target: T3, G132N CHIP-TPR; assay: BLI; BLItz, biotinylated peptide loaded on streptavidin sensors, TPR construct at 1 to 25 uM in solution; 20 mM HEPES, 150 mM NaCl, 5 mM beta-mercaptoethanol, pH 7.2; Kd = koff/kon from individual fits; conditions: both partners purified
[2] = molecular target: T4, human CHIP-TPR (residues 21-154); assay: as above; conditions: both partners purified
HSP70 [3] = assay: Co-immunoprecipitation, steady-state HSP70-CHIP interaction; type: cell-based; conditions: phosphomimetic HSP70, Figure S1
HSP70 [4] = assay: NanoBiT, transient cellular HSP70-CHIP interaction; type: cell-based; conditions: Figure S1
HSP70 [5] = assay: In vitro HSP70 ubiquitination; type: biochemical; conditions: Figure S2
FITC-Ahx-GSGPTIEEVD = molecular target: B6; assay: fluorescence polarisation; FITC-labelled peptide at 20 nM, recombinant CHIP constructs added at varied concentrations, 30 min at room temperature; one-site total binding fit, normalised to % of maximum binding; conditions: both partners purified
[6] = molecular target: T5, CHIP TPR (fluorescence polarization …); assay: FP
[7] = molecular target: T6, full-length CHIP (wild-type); assay: fluorescence polarisation; FITC-labelled peptide at 20 nM, recombinant CHIP constructs added at varied concentrations, 30 min at room temperature; one-site total binding fit, normalised to % of maximum binding; conditions: both partners purified

Kd (full-length CHIP-G132N): 9.2 nM
Kd [1]: 6.5 nM
Molecule: CC[C@H](C)[C@H](NC(=O)[C@@H](NC(=O)[C@@H]1CCCN1C(=O)CN)[C@@H](C)O)C(=O)N[C@@H](CCC(=O)O)C(=O)N[C@@H](CCC(=O)O)C(=O)N[C@H](C(=O)N[C@@H](CC(=O)O)C(=O)O)C(C)C [EEVD] (H-GPTIEEVD-OH)

fold change (CHIP): weaker
Molecule: HSP70 C-terminal tail (from UniProt P0DMV8) pT636 pEEVD peptide

Molecule: T636D phosphomimetic: HSP70 T636D phosphomimetic variant
turnover (proteasome): accelerated proteasome-dependent turnover

Kd (full-length CHIP-G132N): 96 nM
Kd [1]: 46 nM
Molecule: CC[C@H](C)[C@H](NC(=O)[C@@H](NC(=O)[C@@H]1CCCN1C(=O)CN)[C@@H](C)OP(=O)(O)O)C(=O)N[C@@H](CCC(=O)O)C(=O)N[C@@H](CCC(=O)O)C(=O)N[C@H](C(=O)N[C@@H](CC(=O)O)C(=O)O)C(C)C [pEEVD, GP(pT)IEEVD] (H-GP[pT]IEEVD-OH)

Molecule: B1
Kd (G132N CHIP-TPR): 1250 nM
Kd [2]: 5230 nM

Molecule: B2
Kd (G132N CHIP-TPR): 597 nM
Kd [2]: 592 nM

Molecule: B3
rescue of interaction in co-immunoprecipitation (HSP70 [3]): no rescue
binding to the non-mimetic HSP70 (HSP70 [4]): overall reducing binding
HSP70 ubiquitination activity (HSP70 [5]): retained HSP70 ubiquitination activity

Molecule: B4
Kd (FITC-Ahx-GSGPTIEEVD): 28 nM

Molecule: B5
Kd (FITC-Ahx-GSGPTIEEVD): 42 nM

Molecule: B6
Kd [6]: 42000 nM
Kd [7]: 7 nM
